Among the data in paper PMC9425443 (RSC Advances, 2022) are Km, kcat and Kd values, retold here.

Series [1] relates to CC(C)CCC[C@@H](C)[C@H]1CC[C@H]2[C@@H]3CCC4=CC(=O)CC[C@]4(C)[C@H]3CC[C@]12C. Briefly: purified protein, by the assay type. The following applies: pH 7.5.
For another series, the target named is recombinant CYP142A1 (Mycobacterium tuberculosis, UniProt P9WPL5). The following applies: pH 7.4.

Counter-ions that a name gives are not always drawn.

By Km is commonly meant the substrate concentration at which the rate is half of its maximum. The kcat is the maximal rate divided by the concentration of active sites. What is called Kd is the concentration at which binding is half-saturated.

recombinant CYP142A1, sequence (P9WPL5 whole entry): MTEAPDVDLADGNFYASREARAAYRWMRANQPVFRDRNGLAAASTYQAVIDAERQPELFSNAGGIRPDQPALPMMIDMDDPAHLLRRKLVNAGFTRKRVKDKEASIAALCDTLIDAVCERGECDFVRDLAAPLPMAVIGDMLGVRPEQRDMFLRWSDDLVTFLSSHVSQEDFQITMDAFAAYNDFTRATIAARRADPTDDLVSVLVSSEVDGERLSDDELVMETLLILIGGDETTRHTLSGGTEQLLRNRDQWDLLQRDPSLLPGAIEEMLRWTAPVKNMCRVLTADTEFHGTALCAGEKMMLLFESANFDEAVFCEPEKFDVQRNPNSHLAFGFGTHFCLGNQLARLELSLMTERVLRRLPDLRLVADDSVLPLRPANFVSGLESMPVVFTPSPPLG

As for (Mycobacterium tuberculosis H37Rv), in series [1], the Michaelis constant (Km) is 35 ± 5.4 µM and the kcat was 0.128 ± 0.00717 s⁻¹. As for Cholesteryl propionate, the Kd on recombinant CYP142A1 amounted to 45 ± 7 µM. The same measure, in the same setting: in the case of `CC(C)CCC[C@@H](C)[C@H]1CC[C@H]2[C@@H]3CC=C4C[C@@H](OS(=O)(=O)O)CC[C@]4(C)[C@H]3CC[C@]12C` [Cholesteryl sulfate] it was 27 ± 6.9 µM.
